Assay results from paper PMC8155463.

Molecular target: ZF-AS, fusion protein containing ZF5.3 and human argininosuccinate synthetase (human)
Experiment: SEC

“ZF-AS, fusion protein containing ZF5.3 and human argininosuccinate synthetase (enzyme)” gave a stoichiometry N of 4.
